Measured values as given in patent US20090325887A1.

Target: Cav3.1 channel (α3.1 subunit)
Test: cell-based or functional assay

LGLLVAIV [γ6 TM1a peptide]
amplitude of the fast component (Afast) of the unbinding process after 300 µM peptide (bi-exponential fit of current recovery) (normalized fraction): -0.37
apparent affinity (Kapp), overall: 50 µM
dissociation rate estimated from the time constant of Cav3.1 current recovery: 0.167 s⁻¹
fast time constant for binding (fit of current inhibition): < 9 s
fast time constant for unbinding (fit of current recovery): < 9 s
fold increase in affinity between -130 mV and -80 mV holding potential: 3 fold
inhibition of Cav3.1 current at 30 µM peptide (whole-cell patch clamp, HEK/Cav3.1): 45.3%
inhibition of Cav3.1 current at 100 µM peptide, -100 mV: 60%
inhibition of Cav3.1 current at 300 µM peptide: 79.3%
reversible part of the Cav3.1 current inhibition at 30 µM peptide: 73%
time constant of the small slower component of the binding and unbinding processes: > 30 s

LLILAVGV [γ6 TM1a SCR peptide]
inhibition of Cav3.1 current at 30 µM peptide: 0.5%

VTLFFILA [γ1 TM1a peptide]
inhibition of Cav3.1 current at 30 µM peptide: 2.4%

VGLFFALA [γ1 TM1a T12GI16A peptide]
inhibition of Cav3.1 current at 30 µM peptide: 29.4%
